Where two headings read alike, the source gives them in different places.
Tests used:
[1] = molecular target: HA of Ft. Monmouth influenza virus (on virions) (influenza virus strain Ft. Monmouth); experiment: cell-based or functional assay
[2] = molecular target: HA of Ft. Monmouth influenza virus (on virions) (influenza virus strain Ft. Monmouth); experiment: cell-based or functional assay; remark: listed apart in the source

| Binder | EC50 values for inhibition of viral replication in vitro [1] [ng/mL] | EC50 values for inhibition of viral replication in vitro [2] [ng/mL] |
| --- | --- | --- |
| CIEQSFTTLFACQTAAEIWRAFGYTVKIMVDNGNCRLHVC (designed binder, modifications not checked) [HB1.6928.2.3] | 0.02 | – |
| TIEQSFTTLFAAQTAAEIWRAFGYTVKIMQDNGNWRLHVT (designed binder) [CS15990 A13_r31_TAWQT Thr-40-Thr] | – | 2 |

— US20200017552A1
